Data taken from patent publication US20260263645A1 (published 2026).

Target: TGFβ1 (UniProt P01137 279-390)
Experiment: radioligand plate binding; 89Zr-labeled

Sequence of TGFβ1 (P01137 279-390): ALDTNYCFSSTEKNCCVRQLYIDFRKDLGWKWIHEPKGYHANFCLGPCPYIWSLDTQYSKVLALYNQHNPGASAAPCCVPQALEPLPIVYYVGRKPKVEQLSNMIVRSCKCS

Kd: 66 nM
B1: Fresolimumab (antibody, V domains shown)
VH: QVQLVQSGAEVKKPGSSVKVSCKASGYTFSSNVISWVRQAPGQGLEWMGGVIPIVDIANYAQRFKGRVTITADESTSTTYMELSSLRSEDTAVYYCASTLGLVLDAMDYWGQGTLVTVSS
VL: ETVLTQSPGTLSLSPGERATLSCRASQSLGSSYLAWYQQKPGQAPRLLIYGASSRAPGIPDRFSGSGSGTDFTLTISRLEPEDFAVYYCQQYADSPITFGQGTRLEIKR
